Data reported in patent publication US20240240209A1, “SYNTHESIS OF ENANTIOPURE CIS-A-IRONE FROM A RENEWABLE CARBON SOURCE” (Agency for Science, Technology and Research, priority 2021, published 2024).
Entries after “also recorded” stand apart in the source; their conditions may differ.

Test: Cell lysate reaction of pMT enzymes with psi-ionone, irones quantified by HS-SPME-GCMS
Type: biochemical
Conditions: for irone production / methyltransferase activity towards psi-ionone (in words): cell lysate reaction, vs parent or control; for cis-α-irone content (percentage of cis-α-irone in the irone mixture): cell extracts with psi-ionone; for fold change in cis-α-irone produced: AUC vs non-mutated (=1)
Procedure: Using the structure of pMT1 in complex with the cofactor S-adenosyl-L-homocysteine (SAH) and the substrate teleocidin A1 (PDB id: 5GM2) as a template, pMT1 bound to each of the four isomers of α-irone was modelled with the aim of identifying amino acid residues that could be critical to increase cis-α-irone or decrease trans-α-irone production (FIGS. 2d and 2e). […] Site-directed mutagenesis of the 24 residues was carried out with degenerative primers. Subsequently, the mutants of each site were pooled together, and examined if the activity or product-selectivity of the pooled mutants were increased (FIG. 8). This reduced the number of screening reactions to 24, which is manageable when a high-throughput enzymatic assay is not available. […] One residue was chosen and subjected to site-saturation mutagenesis by using degenerative primers containing NNN or NNK. The plasmid library was then transformed into E. coli BL21 (DE3) cells and plated on agar plate containing autoinduction media^19. […] Subsequently, the colonies were collected and resuspended in phosphate saline buffer. Equal number of cells was taken for lysis and cell lysate reactions were carried out in capped SPME-GC vials at 28° C. for 2 days. HS-SPME-GCMS analysis was used to quantify the amount of irones produced by each pooled-colony reaction. […] 24 residues including the control Gly85 (G85m) were subjected to site-saturation mutagenesis, using pMT1 as the template. […] The amount of cis-α-irone produced was estimated based on the area under the gas chromatogram curve (AUC). The fold change is calculated by comparing the AUC of cis-α-irone produced by the mutant enzyme to that of non-mutated.
For each pMT mutant, it was transformed into BL21 and grown in autoinduction media with 5 mM lactose at 20° C. for 36 hrs. Then, cells were pelleted and concentrated 10 times by adding 1 ml of PBS. The OD600 was measured and 40*600 OD*ul cells were transferred into a new 1.5 ml tube. The cells were spun down and resuspended in 600 μl of lysis buffer (1×DNase buffer, 150 mM NaCl, 0.5% glycerol, 1 mg/ml lysozyme and 20U of DNasel). The cells were incubated for 2 hrs at 20° C. with shaking at 300 rpm. Following that, 2 cycles of freeze-thaw was done to completely lyse the cells. At the end of the 2nd thawing, the cell lysate was used to setup a 1 ml reaction in 2 ml GC vials. The reaction consisted of 50 mM Tris (pH7), 10 mM MgCl2, 60 mM NaCl, 0.2 mM SAM and 10 mg/L of psi-ionone and caryophyllene each. To this, 500 μl of cell lysate was added while the remaining 100 μl was used for SDS-PAGE to analyze the total and soluble protein expression. The reaction was incubated for 2 days at 28° C., 300 rpm prior to extraction of cis-α-irone with 500 μl hexane. From this, 20 μl of organic layer was taken into 180 μl hexane for GCMS analysis.
For the mutant pMT activity screening, the reactants and products were analyzed by head space solid phase microextraction (HS-SPME) coupled with an Agilent 5977B gas chromatography (GC) system equipped with Agilent DB-5 ms column (30 m×250 μm×0.25 μm) and mass spectrometry (MS) with high efficiency source. The reaction mixtures were carried out in SPME vials which were incubated at 60° C. for 20 mins to allow the release of volatile compounds. The absorbent fiber (50/30 μm divinylbenzol/carboxen/polydimethyl-SPME fiber, SUPELCO) was then exposed to the headspace of the vial for 20 mins. The extracted analytes were desorbed at the GC inlet at 250° C. for 1 min and injected into GC with a split ratio of 200:1. The GC oven temperature increased from 50° C. to 140° C. at a rate of 10° C./min and held at 140° C. for 10 min. Subsequently, the temperature was increased to 320° C. at a rate of 60° C./min and held at 320° C. for 2 mins.

B1: SaMT: methyltransferase from Streptomyces albireticuli, about 68% sequence identity to pMT1 (protein, listed as Streptomyces albireticuli)
chain: MPQESAQELKVTADEVGDWYDRFGDIYHETLGESVHCGLWFPPDEPHPTSMDLVDLSSRAQDRYTDYLIETLDPRPGDHVLDIGCGTGRSALRLVQQRDARVTGVAISKEQIARADRLANEHGLTDRLTFAYADAQALPYEDGTFDRAWAVESICHMDRAKALQEAWRVLRPGGDLMVLESVLTGELTAEDTAVFQVMLASNLPPTLPEFFGLVGDAGFETLELKDLSANLAMTMNVMALVCHDRKEEFTERFGAEFMEGVVQGLPKAREVVARKTRFFLVMLRKPLA
irone production / methyltransferase activity towards psi-ionone (in words): converted psi-ionone to predominantly trans-α-irone

B2: pMT11: pMT1 with Y200F S182E L273V L180A A202L Y65F C156D T91P (protein)
chain: MPQEARTPQQQVTADEVGDWYDKFGEVYHLTLGESVHCGLWFPPDAPVPQDMELVTMSSQAQDRFTDYLIETLDPKAGQHLLDIGCGTGRPALKAARQRGIAVTGVAVSKEQIAAANRLAAGHGLTERLTFEVADAMRLPYEDESFDCAWAIESLDHMDRAKALGEAWRVLKPGGDLLVAEEVVTEELTEPETALFETLFALNVPPRLGEFFDIVSGAGFHTLSLKDLSANLAMTMNVFALGVYSRRAEFTERFGAEFVDGLLAGLGSAQETVIRKTRFFMATLRKPAV
modifications: Modified from pMT1
notes: pMT1 with Y200F S182E L273V L180A A202L Y65F C156D T91P
irone production / methyltransferase activity towards psi-ionone (in words): improved cis-α-irone production both by the fold change and percentage

B3: pMT14: pMT13 with E197R (protein)
chain: MPQEARTPQQQVTADEVGDWYDKFGEVYHLTLGESVHCGLWFPPDAPVPQDMELVTMSSQAQDRFTDYLIETLDPKAGQHLLDIGCGTGRPALKAARQRGIAVTGVAVSKEQIAAANRLAAGHGLTERLTFEVADAMRLPYEDESFDCAWAIESLDHMDRAKALGEAWRVLKPGGDLLVAEEVVTEELTEPETALFRTLFALNVPPRLGEFFDIVSGAGFHTLSLKDLSADLAMTMNVFALGVAARRAEFTERFGAEFVDGLLAGLPSAQETVIRKTRFFMATLRKPAV
modifications: Modified from pMT1
notes: pMT13 with E197R
irone production / methyltransferase activity towards psi-ionone (in words): reduced the fold change of cis-α-irone to a similar level as pMT10

B4: P191S: pMT12 with P191S (protein)
chain: MPQEARTPQQQVTADEVGDWYDKFGEVYHLTLGESVHCGLWFPPDAPVPQDMELVTMSSQAQDRFTDYLIETLDPKAGQHLLDIGCGTGRPALKAARQRGIAVTGVAVSKEQIAAANRLAAGHGLTERLTFEVADAMRLPYEDESFDCAWAIESLDHMDRAKALGEAWRVLKPGGDLLVAEEVVTEELTESETALFETLFALNVPPRLGEFFDIVSGAGFHTLSLKDLSADLAMTMNVFALGVYSRRAEFTERFGAEFVDGLLAGLGSAQETVIRKTRFFMATLRKPAV
modifications: Modified from pMT1
in-vitro production of cis-α-irone (in words) (single mutations vs parent (pMT7 or pMT12)): moderate increase

B5: pMT4: pMT1 with Y200F S182E L273V (protein)
chain: MPQEARTPQQQVTADEVGDWYDKFGEVYHLTLGESVHCGLWFPPDAPVPQDMELVTMSSQAQDRYTDYLIETLDPKAGQHLLDIGCGTGRTALKAARQRGIAVTGVAVSKEQIAAANRLAAGHGLTERLTFEVADAMRLPYEDESFDCAWAIESLCHMDRAKALGEAWRVLKPGGDLLVLEEVVTEELTEPETALFETLFAANVPPRLGEFFDIVSGAGFHTLSLKDLSANLAMTMNVFALGVYSRRAEFTERFGAEFVDGLLAGLGSAQETVIRKTRFFMATLRKPAV
modifications: Modified from pMT1
notes: pMT1 with Y200F S182E L273V
cis-α-irone content (percentage of cis-α-irone in the irone mixture): ~80% | irone production / methyltransferase activity towards psi-ionone (in words): highest cis-α-irone and lowest trans-α-irone production | fold change in cis-α-irone produced (pMT3_L273 mutants): 1.5 | fold change in cis-α-irone produced (pMT4_L180 mutants): 1 | fold change in cis-α-irone produced (pMT4_T277 mutants): 1.0

B6: pMT3: pMT1 with Y200F S182E (protein)
chain: MPQEARTPQQQVTADEVGDWYDKFGEVYHLTLGESVHCGLWFPPDAPVPQDMELVTMSSQAQDRYTDYLIETLDPKAGQHLLDIGCGTGRTALKAARQRGIAVTGVAVSKEQIAAANRLAAGHGLTERLTFEVADAMRLPYEDESFDCAWAIESLCHMDRAKALGEAWRVLKPGGDLLVLEEVVTEELTEPETALFETLFAANVPPRLGEFFDIVSGAGFHTLSLKDLSANLAMTMNVFALGVYSRRAEFTERFGAEFVDGLLAGLGSAQETLIRKTRFFMATLRKPAV
modifications: Modified from pMT1
notes: pMT1 with Y200F S182E
cis-α-irone content (percentage of cis-α-irone in the irone mixture): 74% | irone production / methyltransferase activity towards psi-ionone (in words): significant increase in cis-α-irone was detected; also recorded: predominantly 1R5S was produced | fold change in cis-α-irone produced (pMT2_S182 mutants): 5.4 | fold change in cis-α-irone produced (pMT3_E153 mutants): 1.0 | fold change in cis-α-irone produced (pMT3_L273 mutants): 1.0 | improvement of total turnover number (TTN) (vs pMT1, TTN = cis-α-irone produced / soluble pMT enzyme): more than 1,000 fold

B7: pMT13: pMT12 with Y244A S245A G267P (protein)
chain: MPQEARTPQQQVTADEVGDWYDKFGEVYHLTLGESVHCGLWFPPDAPVPQDMELVTMSSQAQDRFTDYLIETLDPKAGQHLLDIGCGTGRPALKAARQRGIAVTGVAVSKEQIAAANRLAAGHGLTERLTFEVADAMRLPYEDESFDCAWAIESLDHMDRAKALGEAWRVLKPGGDLLVAEEVVTEELTEPETALFETLFALNVPPRLGEFFDIVSGAGFHTLSLKDLSADLAMTMNVFALGVAARRAEFTERFGAEFVDGLLAGLPSAQETVIRKTRFFMATLRKPAV
modifications: Modified from pMT1
notes: pMT12 with Y244A S245A G267P
irone production / methyltransferase activity towards psi-ionone (in words): maintained the percentage of cis-α-irone produced while further improving the absolute amount produced

B8: ScMT: about 66% homologous enzyme from Streptomyces clavuligerus (protein, listed as Streptomyces clavuligerus)
chain: MPQELAGELRVTAAQVGAWYDQFGDIYHQTLGESIHCGLWFPPDEPHPARVDLVSLSSEAQDRFTDYLIKTLDPHADQHVLDIGCGTGRSALRLSQQRGAKVTGVAISKVQIEHANRLAETHDLSDRLVFEHADAMHLPYEDESFDSAWAIESLCHMDRAKALREAYRVLRPGGDFLLLESVLTNPLTEAEATSLDTMLAANTPLWLPEFFELITRAGFETLELKDLSANLAMTMNVLELVCHDRREEFTRRFGAEFTELLMAGLPEARNITARKTRFFMLLLRKPPVPAN
irone production / methyltransferase activity towards psi-ionone (in words): not active towards psi-ionone
